What all share (test): SPR
In general terms: In SPR one partner is held on a chip, and binding of the other changes the refractive index at the surface.

In one experiment the target is Ab62-D100dG (human).
The target of a further experiment is Ab62-S74P (human).
Experiment [1] concerns the target Ab77 with a T28I mutation (human).
The target in experiment [2] is Other beneficial substitutions in Ab77 and Ab31.

B1: Recombinant dimeric HARS (aa1-506) (enzyme)
chain: MAERAALEELVKLQGERVRGLKQQKASAELIEEEVAKLLKLKAQLGPDESKQKFVLKTPKGTRDYSPRQMAVREKVFDVIIRCFKRHGAEVIDTPVFELKETLMGKYGEDSKLIYDLKDQGGELLSLRYDLTVPFARYLAMNKLTNIKRYHIAKVYRRDNPAMTRGRYREFYQCDFDIAGNFDPMIPDAECLKIMCEILSSLQIGDFLVKVNDRRILDGMFAICGVSDSKFRTICSSVDKLDKVSWEEVKNEMVGEKGLAPEVADRIGDYVQQHGGVSLVEQLLQDPKLSQNKQALEGLGDLKLLFEYLTLFGIDDKISFDLSLARGLDYYTGVIYEAVLLQTPAQAGEEPLGVGSVAAGGRYDGLVGMFDPKGRKVPCVGLSIGVERIFSIVEQRLEALEEKIRTTETQVLVASAQKKLLEERLKLVSELWDAGIKAELLYKKNPKLLNQLQYCEEAGIPLVAIIGEQELKDGVIKLRSVTSREEVDVRREDLVEEIKRRTGQPL
For B1, the fold improvement of affinity over the parent Ab62 with Ab62-D100dG (human) and with Ab62-S74P (human) was 3 fold each time. Besides, the fold improvement of affinity over the parent Ab77 in experiment [1] is 3 fold. Besides, in experiment [2], the fold improvement of affinity over the parent antibody is less than 2 fold.
